The subject of data set [1] is ATP phosphoribosyltransferase (HisG). Nature of the data set: Degree of inhibition by L-histidine on activities of ATP phosphoribosyltransferase variants. The format is biochemical, Corynebacterium glutamicum. The note with it: for Activity of Enzyme, 0 mM L-histidine: L-histidine 0 mM; for Activity of Enzyme, 50 mM L-histidine: L-histidine 50 mM; for Activity of Enzyme, 100 mM L-histidine: L-histidine 100 mM. On the procedure:
(§1) For the evaluation of the activities of the enzymes, the supernatant was quantified to give the same concentration. These enzymes were used as sample enzymes, and the reaction conditions were as follows: the reaction compositions were mixed to the quantified protein (0.05 mg) to give a total amount of 500 μL, and then measured at 30° C. at a UV wavelength of 290 nm for 90 seconds. With regard to the wild-type ATP phosphoribosyltransferase having low activity, the supernatant protein (0.3 mg) was used and measured at a UV wavelength of 290 nm for 30 minutes for the activity evaluation. The composition of the reaction solution for measuring the activities of the enzymes is as follows:
(§2) The degree of inhibition by L-histidine on the activities of ATP phosphoribosyltransferase and the ATP phosphoribosyltransferase variants obtained in Example 4-1 was measured. Specifically, the activities of these enzymes were measured in the reaction composition solution of Example 4-2, which contained L-histidine (0 mM, 50 mM, or 100 mM), using the method described in Example 4-2. […] However, the activities of the ATP phosphoribosyltransferase variants were less inhibited by L-histidine.

Data set [2] has as its target T1, ATP phosphoribosyltransferase (HisG) (Corynebacterium glutamicum, UniProt Q9Z472, G233H/N215R/T235Q).
T1 construct: made in house; host or cells: Corynebacterium glutamicum ATCC 13032 (wild type) and HCJ-96, -161, -162, -163, -164, -165 (chromosomal hisG alleles); unpurified supernatant of sonicated cells
Described as above. The format is biochemical. The note with it: L-histidine 100 mM. On the procedure:
as §1, §2

For data set [3], the system named is ATP phosphoribosyltransferase (HisG). Put plainly: Measurement of activities of ATP phosphoribosyltransferases (UV 290 nm, cell supernatant). The format is biochemical, Corynebacterium glutamicum. The note with it: for Activity of ATP phosphoribosyltransferase (HisG): 30° C., UV 290 nm, no L-histidine. On the procedure: Corynebacterium glutamicum ATCC 13032 and the strains HCJ-96, HCJ-161, HCJ-162, HCJ-163, HCJ-164, and HCJ-165 selected in Example 3 were each inoculated into a corner-baffle flask (250 mL) containing a seed medium (25 mL), and were cultured at 30° C. for 20 hours with shaking at 200 rpm to obtain a seed culture solution. Thereafter, the seed culture solution (1 mL) was inoculated into a corner-baffle flask (250 mL) containing a production medium (24 mL), and was cultured at 30° C. for 45 hours at 200 rpm. After the culture, the obtained cells were sonicated and centrifuged, and the supernatant obtained therefrom was used for evaluation of the activity of ATP phosphoribosyltransferase.
The activities of the ATP phosphoribosyltransferase variants obtained in Example 4-1 and that of a wild-type ATP phosphoribosyltransferase variant were measured. The evaluation of the activities of these enzymes was performed with reference to the conditions described in an existing literature report (Biochimie. 2012 March; 94(3):829-38.).
For the evaluation of the activities of the enzymes, the supernatant was quantified to give the same concentration. These enzymes were used as sample enzymes, and the reaction conditions were as follows: the reaction compositions were mixed to the quantified protein (0.05 mg) to give a total amount of 500 μL, and then measured at 30° C. at a UV wavelength of 290 nm for 90 seconds. With regard to the wild-type ATP phosphoribosyltransferase having low activity, the supernatant protein (0.3 mg) was used and measured at a UV wavelength of 290 nm for 30 minutes for the activity evaluation. The composition of the reaction solution for measuring the activities of the enzymes is as follows: […]

For data set [4], the target named is T2, ATP phosphoribosyltransferase (HisG) (Corynebacterium glutamicum, UniProt Q9Z472).
T2 construct: made in house; host or cells: Corynebacterium glutamicum ATCC 13032 (wild type) and HCJ-96, -161, -162, -163, -164, -165 (chromosomal hisG alleles); unpurified supernatant of sonicated cells
T2 sequence (Q9Z472 whole entry, looked up): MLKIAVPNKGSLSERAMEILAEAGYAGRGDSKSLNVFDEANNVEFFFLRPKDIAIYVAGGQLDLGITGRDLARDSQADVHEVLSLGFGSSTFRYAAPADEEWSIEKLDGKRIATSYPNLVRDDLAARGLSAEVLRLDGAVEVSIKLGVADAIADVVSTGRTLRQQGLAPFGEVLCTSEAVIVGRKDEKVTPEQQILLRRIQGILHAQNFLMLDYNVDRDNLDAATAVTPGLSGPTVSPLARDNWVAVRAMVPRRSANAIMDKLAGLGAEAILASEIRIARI
Nature of the data set: Degree of inhibition by L-histidine on activities of ATP phosphoribosyltransferase variants. The format is biochemical. The note with it: L-histidine 50 mM and 100 mM. On the procedure:
as §1, §2

B1: HisG (N215R/G233H/T235Q): ATP phosphoribosyltransferase variant N215R/G233H/T235Q, SEQ ID NO: 1 (protein)
chain: MLKIAVPNKGSLSERAMEILAEAGYAGRGDSKSLNVFDEANNVEFFFLRPKDIAIYVAGGQLDLGITGRDLARDSQADVHEVLSLGFGSSTFRYAAPADEEWSIEKLDGKRIATSYPNLVRDDLAARGLSAEVLRLDGAVEVSIKLGVADAIADVVSTGRTLRQQGLAPFGEVLCTSEAVIVGRKDEKVTPEQQILLRRIQGILHAQNFLMLDYRVDRDNLDAATAVTPGLSHPQVSPLARDNWVAVRAMVPRRSANAIMDKLAGLGAEAILASEIRIARI
modifications: HisG
In the case of B1, in data set [1], the “Activity of Enzyme, 0 mM L-histidine” value was 2.082 U/mg; the “Activity of Enzyme, 50 mM L-histidine” value was 1.435 U/mg; the “Activity of Enzyme, 100 mM L-histidine” value worked out at 1.335 U/mg. Also, in data set [2], the “activity in composition solution containing L-histidine (in words)” value is “showed the highest activity”. Besides, in data set [3], the “Activity of ATP phosphoribosyltransferase (HisG)” value (“Activity … (HisG)” for short) is recorded as 2.082 U/mg. In data set [3] (relative to wild-type enzyme), the “activity fold higher than that of the wild-type enzyme” value is listed as “about 160 fold”.

B2: HisG: wild-type Corynebacterium glutamicum ATP phosphoribosyltransferase, SEQ ID NO: 13 (protein)
chain: MLKIAVPNKGSLSERAMEILAEAGYAGRGDSKSLNVFDEANNVEFFFLRPKDIAIYVAGGQLDLGITGRDLARDSQADVHEVLSLGFGSSTFRYAAPADEEWSIEKLDGKRIATSYPNLVRDDLAARGLSAEVLRLDGAVEVSIKLGVADAIADVVSTGRTLRQQGLAPFGEVLCTSEAVIVGRKDEKVTPEQQILLRRIQGILHAQNFLMLDYNVDRDNLDAATAVTPGLSGPTVSPLARDNWVAVRAMVPRRSANAIMDKLAGLGAEAILASEIRIARI
modifications: HisG
B2: in data set [1], the “Activity of Enzyme, 0 mM L-histidine” value was found to be 0.013 U/mg; the “Activity of Enzyme, 50 mM L-histidine” value amounted to 0 U/mg; the “Activity of Enzyme, 100 mM L-histidine” value amounted to 0 U/mg. For the same molecule, the “inhibition of enzyme activity by L-histidine (in words)” value in data set [4] was “completely inhibited”. Moreover, in data set [3], the “Activity … (HisG)” value worked out at 0.013 U/mg.

B3: HisG (N215K/L231F/T235A): known HisG variant N215K/L231F/T235A (Biochimie. 2012 March; 94(3):829-38) (protein)
chain: MLKIAVPNKGSLSERAMEILAEAGYAGRGDSKSLNVFDEANNVEFFFLRPKDIAIYVAGGQLDLGITGRDLARDSQADVHEVLSLGFGSSTFRYAAPADEEWSIEKLDGKRIATSYPNLVRDDLAARGLSAEVLRLDGAVEVSIKLGVADAIADVVSTGRTLRQQGLAPFGEVLCTSEAVIVGRKDEKVTPEQQILLRRIQGILHAQNFLMLDYKVDRDNLDAATAVTPGFSGPAVSPLARDNWVAVRAMVPRRSANAIMDKLAGLGAEAILASEIRIARI
As to B3, in data set [1], the “Activity of Enzyme, 0 mM L-histidine” value was 0.387 U/mg; the “Activity of Enzyme, 50 mM L-histidine” value was 0.202 U/mg; the “Activity of Enzyme, 100 mM L-histidine” value came to 0.023 U/mg. Besides, in data set [3], the “Activity … (HisG)” value was determined as 0.387 U/mg.

B4: HisG (N215R/L231F/T235A): ATP phosphoribosyltransferase variant N215R/L231F/T235A (protein)
chain: MLKIAVPNKGSLSERAMEILAEAGYAGRGDSKSLNVFDEANNVEFFFLRPKDIAIYVAGGQLDLGITGRDLARDSQADVHEVLSLGFGSSTFRYAAPADEEWSIEKLDGKRIATSYPNLVRDDLAARGLSAEVLRLDGAVEVSIKLGVADAIADVVSTGRTLRQQGLAPFGEVLCTSEAVIVGRKDEKVTPEQQILLRRIQGILHAQNFLMLDYRVDRDNLDAATAVTPGFSGPAVSPLARDNWVAVRAMVPRRSANAIMDKLAGLGAEAILASEIRIARI
As for B4, in data set [1], the “Activity of Enzyme, 0 mM L-histidine” value was 0.408 U/mg; the “Activity of Enzyme, 50 mM L-histidine” value came to 0.157 U/mg; the “Activity of Enzyme, 100 mM L-histidine” value is 0 U/mg. In data set [3], the “Activity … (HisG)” value came out at 0.408 U/mg.

B5: HisG (N215K/G233H/T235Q): ATP phosphoribosyltransferase variant N215K/G233H/T235Q (protein)
chain: MLKIAVPNKGSLSERAMEILAEAGYAGRGDSKSLNVFDEANNVEFFFLRPKDIAIYVAGGQLDLGITGRDLARDSQADVHEVLSLGFGSSTFRYAAPADEEWSIEKLDGKRIATSYPNLVRDDLAARGLSAEVLRLDGAVEVSIKLGVADAIADVVSTGRTLRQQGLAPFGEVLCTSEAVIVGRKDEKVTPEQQILLRRIQGILHAQNFLMLDYKVDRDNLDAATAVTPGLSHPQVSPLARDNWVAVRAMVPRRSANAIMDKLAGLGAEAILASEIRIARI
As for B5, in data set [1], the “Activity of Enzyme, 0 mM L-histidine” value worked out at 1.3 U/mg; the “Activity of Enzyme, 50 mM L-histidine” value amounted to 0.679 U/mg; the “Activity of Enzyme, 100 mM L-histidine” value is 0.413 U/mg. In addition, the “Activity … (HisG)” value in data set [3] was found to be 1.3 U/mg.

B6: HisG (N215R): ATP phosphoribosyltransferase variant with N215R substitution (protein)
chain: MLKIAVPNKGSLSERAMEILAEAGYAGRGDSKSLNVFDEANNVEFFFLRPKDIAIYVAGGQLDLGITGRDLARDSQADVHEVLSLGFGSSTFRYAAPADEEWSIEKLDGKRIATSYPNLVRDDLAARGLSAEVLRLDGAVEVSIKLGVADAIADVVSTGRTLRQQGLAPFGEVLCTSEAVIVGRKDEKVTPEQQILLRRIQGILHAQNFLMLDYRVDRDNLDAATAVTPGLSGPTVSPLARDNWVAVRAMVPRRSANAIMDKLAGLGAEAILASEIRIARI
For B6, in data set [1], the “Activity of Enzyme, 0 mM L-histidine” value was determined as 0.021 U/mg; the “Activity of Enzyme, 50 mM L-histidine” value came out at 0 U/mg; the “Activity of Enzyme, 100 mM L-histidine” value is listed as 0 U/mg. Also, the “Activity … (HisG)” value in data set [3] is on record as 0.021 U/mg.

B7: HisG (G233H/T235Q): ATP phosphoribosyltransferase variant with G233H and T235Q substitutions (protein)
chain: MLKIAVPNKGSLSERAMEILAEAGYAGRGDSKSLNVFDEANNVEFFFLRPKDIAIYVAGGQLDLGITGRDLARDSQADVHEVLSLGFGSSTFRYAAPADEEWSIEKLDGKRIATSYPNLVRDDLAARGLSAEVLRLDGAVEVSIKLGVADAIADVVSTGRTLRQQGLAPFGEVLCTSEAVIVGRKDEKVTPEQQILLRRIQGILHAQNFLMLDYNVDRDNLDAATAVTPGLSHPQVSPLARDNWVAVRAMVPRRSANAIMDKLAGLGAEAILASEIRIARI
With B7, in data set [1], the “Activity of Enzyme, 0 mM L-histidine” value was determined as 1.381 U/mg; the “Activity of Enzyme, 50 mM L-histidine” value came out at 0.64 U/mg; the “Activity of Enzyme, 100 mM L-histidine” value was determined as 0.542 U/mg. In addition, the “Activity … (HisG)” value in data set [3] worked out at 1.381 U/mg.
